Broadly, the IC50 is the midpoint of a concentration-inhibition curve. Low readings indicate inhibition by little substance, high ones a need for much substance.

Assay [1] concerns the target δ receptor (δ-Binding assay, replacement of 3H-naltrindole). Nature of the assay: δ-Binding, replacement of 3H-naltrindole (radioligand displacement). For orientation: Displacement assays read how much labelled ligand stays bound in the presence of the test substance.
For assay [2], the target named is µ-receptor (guinea pig ileum preparation) (guinea pig). In words: cell-based or functional assay.
Assay [3] deals with δ-receptor (mouse vas deferens preparation) (mouse) (UniProt P32300). In words: cell-based or functional assay.
Chain of δ-receptor (mouse vas deferens preparation) (mouse) (P32300 whole entry, stated change not applied): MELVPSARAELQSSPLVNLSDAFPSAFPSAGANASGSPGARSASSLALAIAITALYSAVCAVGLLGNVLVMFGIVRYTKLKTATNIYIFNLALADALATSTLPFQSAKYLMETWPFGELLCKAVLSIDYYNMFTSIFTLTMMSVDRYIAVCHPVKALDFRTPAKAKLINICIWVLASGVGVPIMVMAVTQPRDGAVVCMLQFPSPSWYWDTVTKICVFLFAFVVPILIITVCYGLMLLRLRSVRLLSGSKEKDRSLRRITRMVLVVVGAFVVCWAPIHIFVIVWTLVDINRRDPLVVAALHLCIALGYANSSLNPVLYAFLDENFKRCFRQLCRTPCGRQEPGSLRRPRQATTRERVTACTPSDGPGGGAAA

The substance “Tyr-c[D-AlaL-Gly-Phe-L-AlaL]-NH2 (peptide)” returned an IC50 in assay [1] of 7 nM.

In the case of “Tyr-c[D-AlaL-Gly-Phe-L-AlaL]-OH (peptide)”, in assay [1], the IC50 turned out to be 1 nM.

For “Tyr-c[D-Cys-Gly-Phe-D-Cys]-NH2 (peptide)”, the GPI IC50 in assay [2] was 0.78 nM.

Consider “Tyr-c[D-Cys-Gly-Phe-L-Cys]-NH2 (peptide)”, for which, in assay [2], the GPI IC50 was determined as 1.51 nM.

For the substance Tyr-c[D-Cys-Gly-Phe-L-Cys]-OH (peptide), the GPI IC50 in assay [2] is 3.06 nM.

In the case of Tyr-c[D-Pen-Gly-Phe-D-Pen]-OH (peptide), the GPI IC50 in assay [2] is 7300 nM. The substance further had an MVD IC50 in assay [3] of 4.1 nM.

For the origin of these results see patent US20020165132A1.
